Among the data in the supplement of paper PMC10567573 are protein stability index values, retold here.

The chains are these.
B1: C10orf62 (parent)
chain: MLWVQRKRRRKETSECPSDKDKSP
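Further: lentivirally expressed fusions sorted by FACS into six bins by GFP to DsRed ratio, PSI derived from sequencing read proportions per bin multiplied by bin number.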

The data set covers variants of B1. Description: protein stability index of a GFP-peptide fusion (GPS, HEK-293T) (PSI 1-6); higher = more stable. The note with it: c terminus: a fixed tail appended.
For MLWVNRKRRRKETSECPSDKDKSP [Q5N], the protein stability index was 3.44.

For the variant MLWVARKRRRKETSECPSDKDKSP [Q5A], the protein stability index amounted to 3.98.

In the case of MLWVLRKRRRKETSECPSDKDKSP [Q5L], the protein stability index stood at 2.4.

Consider MLWVSRKRRRKETSECPSDKDKSP [Q5S], for which the protein stability index came out at 3.85.

Turning to MLWVPRKRRRKETSECPSDKDKSP [Q5P], the protein stability index is 3.11.

For MLWVMRKRRRKETSECPSDKDKSP [Q5M], the protein stability index was found to be 2.62.

With MLWVWRKRRRKETSECPSDKDKSP [Q5W], the protein stability index came out at 1.93.

In the case of MLWVKRKRRRKETSECPSDKDKSP [Q5K], the protein stability index stood at 4.1.

MLWVDRKRRRKETSECPSDKDKSP [Q5D]: the protein stability index was found to be 4.23.

In the case of MLWVQEKRRRKETSECPSDKDKSP [R6E], the protein stability index was 4.01.

As to MLWVQTKRRRKETSECPSDKDKSP [R6T], the protein stability index is 3.13.

Take MLWVQFKRRRKETSECPSDKDKSP [R6F]: the protein stability index stood at 3.11.

Take MLWVQQKRRRKETSECPSDKDKSP [R6Q]: the protein stability index was determined as 3.27.

As to MLWVQHKRRRKETSECPSDKDKSP [R6H], the protein stability index is 2.88.

Consider MLWVQGKRRRKETSECPSDKDKSP [R6G], for which the protein stability index was found to be 3.54.

Consider MLWVQCKRRRKETSECPSDKDKSP [R6C], for which the protein stability index was determined as 2.27.

Turning to MLWVQVKRRRKETSECPSDKDKSP [R6V], the protein stability index was found to be 2.95.

On to MLWVQRKRIRKETSECPSDKDKSP [R9I], for which the protein stability index amounted to 3.4.

In the case of MLWVQRKRYRKETSECPSDKDKSP [R9Y], the protein stability index came out at 3.75.

Consider MLWVQRKRKRKETSECPSDKDKSP [R9K], for which the protein stability index came out at 2.73.

For MLWVQRKRARKETSECPSDKDKSP [R9A], the protein stability index was 3.71.

In the case of MLWVQRKRPRKETSECPSDKDKSP [R9P], the protein stability index came out at 2.26.

For MLWVQRKRNRKETSECPSDKDKSP [R9N], the protein stability index amounted to 3.18.

Regarding MLWVQRKRVRKETSECPSDKDKSP [R9V], the protein stability index worked out at 3.18.

In the case of MLWVQRKRTRKETSECPSDKDKSP [R9T], the protein stability index is 3.49.

Turning to MLWVQRKRCRKETSECPSDKDKSP [R9C], the protein stability index came out at 2.81.

MLWVQRKRHRKETSECPSDKDKSP [R9H]: the protein stability index is 3.32.

Take MLWVQRKRMRKETSECPSDKDKSP [R9M]: the protein stability index was found to be 3.63.

Turning to MLWVQRKRRRKEQSECPSDKDKSP [T13Q], the protein stability index was determined as 2.58.

With MLWVQRKRRRKEKSECPSDKDKSP [T13K], the protein stability index turned out to be 3.55.

In the case of MLWVQRKRRRKEISECPSDKDKSP [T13I], the protein stability index was found to be 2.52.

With MLWVQRKRRRKEGSECPSDKDKSP [T13G], the protein stability index was 2.15.

Take MLWVQRKRRRKEESECPSDKDKSP [T13E]: the protein stability index is 2.99.

Consider MLWVQRKRRRKECSECPSDKDKSP [T13C], for which the protein stability index turned out to be 2.42.

Take MLWVQRKRRRKEVSECPSDKDKSP [T13V]: the protein stability index worked out at 4.26.

As to MLWVQRKRRRKERSECPSDKDKSP [T13R], the protein stability index amounted to 3.48.

With MLWVQRKRRRKEPSECPSDKDKSP [T13P], the protein stability index turned out to be 3.04.

Consider MLWVQRKRRRKCTSECPSDKDKSP [E12C], for which the protein stability index was found to be 2.7.

MLWVQRKRRRKTTSECPSDKDKSP [E12T]: the protein stability index was 2.92.

As for MLWVQRKRRRKYTSECPSDKDKSP [E12Y], the protein stability index was 2.68.

Regarding MLWVQRKRRRKPTSECPSDKDKSP [E12P], the protein stability index came out at 3.67.

On to MLWVQRKRRRKMTSECPSDKDKSP [E12M], for which the protein stability index was found to be 2.67.

As to MLWVQRKRRRKGTSECPSDKDKSP [E12G], the protein stability index was found to be 2.49.

For MLWVQRKRRRKWTSECPSDKDKSP [E12W], the protein stability index was determined as 2.5.

Regarding MLWVQRKRRRKKTSECPSDKDKSP [E12K], the protein stability index was found to be 3.44.

On to MLWVQRKRRRKVTSECPSDKDKSP [E12V], for which the protein stability index was 2.93.

Consider MLWVQRKRRRKNTSECPSDKDKSP [E12N], for which the protein stability index amounted to 2.67.

With MLWVQRKRRRKETSECCSDKDKSP [P17C], the protein stability index stood at 2.74.

In the case of MLWVQRKRRRKETSECISDKDKSP [P17I], the protein stability index came out at 2.96.

Regarding MLWVQRKRRRKETSECASDKDKSP [P17A], the protein stability index was determined as 4.1.

For MLWVQRKRRRKETSECWSDKDKSP [P17W], the protein stability index was determined as 2.86.

In the case of MLWVQRKRRRKETSECMSDKDKSP [P17M], the protein stability index was 3.44.

For the variant MLWVQRKRRRKETSECLSDKDKSP [P17L], the protein stability index came to 2.98.

On to MLWVQRKRRRKETSECDSDKDKSP [P17D], for which the protein stability index is 2.6.

For MLWVQRKRRRKETSECPEDKDKSP [S18E], the protein stability index worked out at 2.88.

Regarding MLWVQRKRRRKETSECPYDKDKSP [S18Y], the protein stability index came to 2.43.

For the variant MLWVQRKRRRKETSECPQDKDKSP [S18Q], the protein stability index amounted to 3.42.

Take MLWVQRKRRRKETSECPMDKDKSP [S18M]: the protein stability index is 2.94.

Take MLWVQRKRRRKETSECPWDKDKSP [S18W]: the protein stability index was found to be 2.63.

MLWVQRKRRRDETSECPSDKDKSP [K11D]: the protein stability index was 3.46.

Regarding MLWVQRKRRRCETSECPSDKDKSP [K11C], the protein stability index turned out to be 2.46.

For the variant MLWVQRKRRRFETSECPSDKDKSP [K11F], the protein stability index was 2.73.

Take MLWVQRKRRRAETSECPSDKDKSP [K11A]: the protein stability index is 4.09.

Take MLWVQRKRRREETSECPSDKDKSP [K11E]: the protein stability index was determined as 3.06.

Regarding MLWVQRKRRRMETSECPSDKDKSP [K11M], the protein stability index was 2.71.

MLWVQRKRRRQETSECPSDKDKSP [K11Q]: the protein stability index is 3.44.

Regarding MLWVQRKRRRPETSECPSDKDKSP [K11P], the protein stability index is 3.34.

For the variant MLWVQRKRRRWETSECPSDKDKSP [K11W], the protein stability index stood at 2.45.

As for MLWVQRKRRRYETSECPSDKDKSP [K11Y], the protein stability index was determined as 2.31.

For MLWVQRKRRRNETSECPSDKDKSP [K11N], the protein stability index stood at 3.11.

Regarding MLWEQRKRRRKETSECPSDKDKSP [V4E], the protein stability index came to 4.56.

For the variant MLWWQRKRRRKETSECPSDKDKSP [V4W], the protein stability index came out at 2.57.

For the variant MLWMQRKRRRKETSECPSDKDKSP [V4M], the protein stability index amounted to 2.52.

In the case of MLWCQRKRRRKETSECPSDKDKSP [V4C], the protein stability index stood at 3.91.

For MLWGQRKRRRKETSECPSDKDKSP [V4G], the protein stability index came to 3.89.

As for MLWHQRKRRRKETSECPSDKDKSP [V4H], the protein stability index was determined as 3.86.

MLWVQRKRRRKETSECPSDPDKSP [K20P]: the protein stability index worked out at 3.19.

MLWVQRKRRRKETSECPSDHDKSP [K20H]: the protein stability index was found to be 2.97.

For the variant MLWVQRKRRRKETSECPSDGDKSP [K20G], the protein stability index worked out at 3.29.

Turning to MLWVQRKRRRKETSECPSDLDKSP [K20L], the protein stability index was found to be 3.01.

Regarding MLWVQRKRRRKETSECPSDDDKSP [K20D], the protein stability index is 4.06.

Take MLWVQRKRRRKETSECPSDRDKSP [K20R]: the protein stability index worked out at 2.81.

Consider MLWVQRKRRRKETSECPSDVDKSP [K20V], for which the protein stability index came to 3.27.

On to MLWVQRKRRRKETSECPSDTDKSP [K20T], for which the protein stability index was determined as 3.35.

On to MLWVQRKRRRKETSECPSDSDKSP [K20S], for which the protein stability index turned out to be 2.73.

Regarding MLWVQRKRRRKETSECPSDIDKSP [K20I], the protein stability index was 3.7.

Turning to MLWVQRKRRRKETSECPSDYDKSP [K20Y], the protein stability index is 3.92.

For the variant MLWVQRSRRRKETSECPSDKDKSP [K7S], the protein stability index is 3.85.

As for MLWVQRVRRRKETSECPSDKDKSP [K7V], the protein stability index came to 2.69.

Consider MLWVQRHRRRKETSECPSDKDKSP [K7H], for which the protein stability index amounted to 3.69.

As to MLWVQRRRRRKETSECPSDKDKSP [K7R], the protein stability index was 3.29.

With MLWVQRPRRRKETSECPSDKDKSP [K7P], the protein stability index was found to be 3.97.

Take MLWVQRNRRRKETSECPSDKDKSP [K7N]: the protein stability index came out at 3.9.

Regarding MLWVQRGRRRKETSECPSDKDKSP [K7G], the protein stability index stood at 3.23.
